Reference: article PMC5733569, “Sbp1 modulates the translation of Pab1 mRNA in a poly(A)- and RGG-dependent manner” (RNA, 2018)
One block for each molecule: values may come before it.

Assays:
[1] = test system: Sbp1 (Saccharomyces cerevisiae); experiment: EMSA; conditions: Hill coefficient 2.1 +/- 0.1; EMSA: native 8% PAGE in THEM buffer (34 mM Tris base, 57 mM Hepes, 0.1 mM EDTA, 2.5 mM MgCl2); binding buffer salt, pH and temperature not given in the …
[2] = test system: Sbp1RGG (Saccharomyces cerevisiae); experiment: EMSA; conditions: EMSA: native 8% PAGE in THEM buffer (34 mM Tris base, 57 mM Hepes, 0.1 mM EDTA, 2.5 mM MgCl2); binding buffer salt, pH and temperature not given in the …
[3] = test system: Sbp1RRM2 (Saccharomyces cerevisiae); experiment: EMSA; conditions: EMSA: native 8% PAGE in THEM buffer (34 mM Tris base, 57 mM Hepes, 0.1 mM EDTA, 2.5 mM MgCl2); binding buffer salt, pH and temperature not given in the …
[4] = test system: Sbp1RRM1 (Saccharomyces cerevisiae); experiment: EMSA; conditions: EMSA: native 8% PAGE in THEM buffer (34 mM Tris base, 57 mM Hepes, 0.1 mM EDTA, 2.5 mM MgCl2); binding buffer salt, pH and temperature not given in the …
[5] = test system: Pab1 (Saccharomyces cerevisiae); experiment: EMSA; conditions: EMSA: native 8% PAGE in THEM buffer (34 mM Tris base, 57 mM Hepes, 0.1 mM EDTA, 2.5 mM MgCl2); binding buffer salt, pH and temperature not given in the …
[6] = molecular target: Pab1 (purified, as added in the IgG-pulldown and EMSA) (S. cerevisiae) (UniProt P04147)
[7] = molecular target: T1, C-terminal TAP-tagged eIF4G1 (S. cerevisiae, UniProt P39935 1-952); experiment: pull-down; IgG-pulldown: eIF4G1-TAP with purified Pab1 and Sbp1 (or Sbp1^m) in the presence of 10x 5′UTR_Pab1 RNA; conditions: both partners purified
T1 construct: eIF4G1, translation initiation factor of S. cerevisiae; the TAP tag was inserted at the end of the eIF4G1 gene in its chromosome locus; also called eIF4G1-TAP; source: RNase A and 1 M KCl wash to remove endogenous RNAs
T1 sequence (looked up): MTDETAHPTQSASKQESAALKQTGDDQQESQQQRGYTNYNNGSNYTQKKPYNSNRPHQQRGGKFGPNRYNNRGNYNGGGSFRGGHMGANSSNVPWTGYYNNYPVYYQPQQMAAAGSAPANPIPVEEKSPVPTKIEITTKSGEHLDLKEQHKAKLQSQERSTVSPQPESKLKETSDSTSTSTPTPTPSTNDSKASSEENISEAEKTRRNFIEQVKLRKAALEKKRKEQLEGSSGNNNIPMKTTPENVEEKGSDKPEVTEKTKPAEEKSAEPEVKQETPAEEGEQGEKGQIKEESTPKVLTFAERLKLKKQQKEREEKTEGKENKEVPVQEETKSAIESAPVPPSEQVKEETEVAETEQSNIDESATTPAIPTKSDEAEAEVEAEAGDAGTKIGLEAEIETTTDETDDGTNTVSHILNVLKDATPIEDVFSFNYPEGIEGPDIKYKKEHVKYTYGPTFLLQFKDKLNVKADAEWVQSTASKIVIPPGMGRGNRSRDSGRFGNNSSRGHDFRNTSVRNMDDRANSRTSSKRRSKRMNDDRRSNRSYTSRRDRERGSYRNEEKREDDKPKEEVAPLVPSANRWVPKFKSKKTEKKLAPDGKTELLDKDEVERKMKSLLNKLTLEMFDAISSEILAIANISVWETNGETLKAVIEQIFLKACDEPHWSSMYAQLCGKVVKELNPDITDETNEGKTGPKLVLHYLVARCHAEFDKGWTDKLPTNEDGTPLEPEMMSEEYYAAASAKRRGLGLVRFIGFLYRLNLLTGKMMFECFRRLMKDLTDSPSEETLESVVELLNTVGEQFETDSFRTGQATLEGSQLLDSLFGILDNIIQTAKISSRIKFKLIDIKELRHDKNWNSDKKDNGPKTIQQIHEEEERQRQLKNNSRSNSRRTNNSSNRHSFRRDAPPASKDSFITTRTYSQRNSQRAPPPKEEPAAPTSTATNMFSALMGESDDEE

Molecule: 5'UTRPab1
- Kd [1]: 26.5 nM
- Kd [2]: 2700 nM
- Kd [3]: 900 nM
- Kd [4]: 1100 nM
- Kd [5]: 31.2 nM

- cap-dependent translation initiation activity of the 5′UTR Pab1 luciferase reporter in yeast cell extract with an increasing amount of Sbp1 [6]: 20 to 60 % decrease
B1: Sbp1 (natural protein)
chain: MSAEIEEATNAVNNLSINDSEQQPRAPTHKTVIDPEDTIFIGNVAHECTEDDLKQLFVEEFGDEVSVEIPIKEHTDGHIPASKHALVKFPTKIDFDNIKENYDTKVVKDREIHIKRARTPGQMQRGGFRGRGGFRGRGGFRGGFRGGYRGGFRGRGNFRGRGGARGGFNGQKREKIPLDQMERSKDTLYINNVPFKATKEEVAEFFGTDADSISLPMRKMRDQHTGRIFTSDSANRGMAFVTFSGENVDIEAKAEEFKGKVFGDRELTVDVAVIRPENDEEEIEQETGSEEKQE

- binding result [7]: binds
B2: Pab1 (purified, as added in the IgG-pulldown and EMSA) (natural protein, S. cerevisiae, UniProt P04147 1-577, looked up)
chain: MADITDKTAEQLENLNIQDDQKQAATGSESQSVENSSASLYVGDLEPSVSEAHLYDIFSPIGSVSSIRVCRDAITKTSLGYAYVNFNDHEAGRKAIEQLNYTPIKGRLCRIMWSQRDPSLRKKGSGNIFIKNLHPDIDNKALYDTFSVFGDILSSKIATDENGKSKGFGFVHFEEEGAAKEAIDALNGMLLNGQEIYVAPHLSRKERDSQLEETKAHYTNLYVKNINSETTDEQFQELFAKFGPIVSASLEKDADGKLKGFGFVNYEKHEDAVKAVEALNDSELNGEKLYVGRAQKKNERMHVLKKQYEAYRLEKMAKYQGVNLFVKNLDDSVDDEKLEEEFAPYGTITSAKVMRTENGKSKGFGFVCFSTPEEATKAITEKNQQIVAGKPLYVAIAQRKDVRRSQLAQQIQARNQMRYQQATAAAAAAAAGMPGQFMPPMFYGVMPPRGVPFNGPNPQQMNPMGGMPKNGMPPQFRNGPVYGVPPQGGFPRNANDNNQFYQQKQRQALGEQLYKKVSAKTSNEEAAGKITGMILDLPPQEVFPLLESDELFEQHYKEASAAYESFKKEQEQQTEQA
notes: it may be the same molecule as m1
